Test results: patent US20260055143A1 (published 2026)
Read-outs that look alike come from different tables or passages of the source. Where no end group is shown, it is not given here. [ ]: non-standard residue; d: D form. The star is where a group is joined. Biotin = O=C1N[C@H]2[C@H](CS[C@H]2CCCCC(=O)*)N1; pY = N[C@@H](Cc1ccc(OP(=O)(O)O)cc1)C(=O)O; Ahx = NCCCCCC(=O)O

T1: pTyr-containing peptide (pEZ) derived from Ezrin, PPV{pTyr}EPVS (also: N-terminal fluorescein (FP) or biotin via two aminocaproic acids (ELISA))
T1 peptide: PPV[pY]EPVS

T2: Phosphopeptide KQVE{pTyr}LDLDLD
T2 peptide: {Biotin-Ahx-Ahx}-KQVE[pY]LDLDLD

T3: Phosphopeptide PPPT{pTyr}TEVDP
T3 peptide: {Biotin-Ahx-Ahx}-PPPT[pY]TEVDP

T4: pMT peptide EEPQ{pTyr}EEIPIY
T4 peptide: {Biotin-Ahx-Ahx}-EEPQ[pY]EEIPIY

T5: Phosphopeptide QGVI{pTyr}SDLNLP
T5 peptide: {Biotin-Ahx-Ahx}-QGVI[pY]SDLNLP


How the values were obtained:
[1] = molecular target: T1, pTyr-containing peptide (pEZ) derived …; test: competition binding
[2] = molecular target: T1, pTyr-containing peptide (pEZ) derived …; test: competition binding
[3] = molecular target: T2, Phosphopeptide KQVE{pTyr}LDLDLD; test: competition binding
[4] = molecular target: T3, Phosphopeptide PPPT{pTyr}TEVDP; test: competition
[5] = molecular target: T4, pMT peptide EEPQ{pTyr}EEIPIY; test: competition binding
[6] = molecular target: T4, pMT peptide EEPQ{pTyr}EEIPIY; test: competition binding
[7] = molecular target: T5, Phosphopeptide QGVI{pTyr}SDLNLP; test: competition binding

Binder	IC50 [1]	IC50 [2]	other results
sFes^1 (SuperFes), superbinder Fes SH2 domain variant (designed binder) MKIEEHHHHHHSSGKLGLNDIFEAQKIEWHESSGEDLYFQSGTTMDDYKDDDDKGGSEVQKPLHEQLWYHGAIPRAEVAELLVHSGDFLVREGQSQPDYVLSVLWDGLPRHFIIQSLDNLYRLEGEGFPSIPLLIDHLLSTQQPLTKKSGVVLHRAVPSR	1.6 nM	4 nM	–
Ptn11_N^G-αA2-R sSrc (protein) MKIEEHHHHHHSSGKLGLNDIFEAQKIEWHESSGEDLYFQSGTTMDDYKDDDDKGGSGSMTSRRWFHPNITRVEAENLLLTRGVDGSFLARPSETVKGAFALSVRRNGAVTHILIQNTGDYYDLYGGEKFATLAELVQYYMEHHGQLKEKNGDVIELKYPLNCADSR	–	–	IC50 [3]: 17 nM
Fes SH2 domain, wild type (Fes^wt) (other) WYHGAIPRAEVAELLVHSGDFLVRESQGKQEYVLSVLWDGLPRHFIIQSLDNLYRLEGEGFPSIPLLIDHLLSTQQPLTKKSGVVLHRAV	4600 nM	6000 nM	–
Ptn11_N^G-αA2-R sFes (protein) MKIEEHHHHHHSSGKLGLNDIFEAQKIEWHESSGEDLYFQSGTTMDDYKDDDDKGGSGSMTSRRWFHPNITRVEAENLLLTRGVDGSFLARPGQSQPDFVLSVRRNGAVTHIIIQNTGDYYDLYGGEKFATLAELVQYYMEHHGQLKEKNGDVIELKYPLNCADSR	–	–	IC50 [3]: 74 nM
Ptn11_C^G-αA2-R sSrc (protein) MKIEEHHHHHHSSGKLGLNDIFEAQKIEWHESSGEDLYFQSGTTMDDYKDDDDKGSLNCADPTSERWFHGHLSRKEAEKLLTEKGKHGSFLVRESETVKGAFALSVRTGDDKGESNDGKSKVTHVLIRCQELKYDVGGGERFDSLTDLVEHYKKNPMVETLGTVLQLKQPLNTTRINAADSR	–	–	IC50 [4]: 1900 nM
Src^sFes, Src SH2 domain with the sFes superbinder motif grafted (designed binder) MKIEEHHHHHHSSGKLGLNDIFEAQKIEWHESSGEDLYFQSGTTMDDYKDDDDKGGSDGIQAEEWYFGKITRRESERLLLNAENPRGTFLVREGQSQPDYVLSVSDFDNAKGLNVKHYIIRKLDSGGFYITSRTQFNSLQQLVAYYSKHADGLCHRLTTVCPSR	–	–	IC50 [5]: 4.3 nM; IC50 [6]: 21 nM
Fes^sSrc, Fes SH2 domain with the sSrc superbinder motif grafted (designed binder) MKIEEHHHHHHSSGKLGLNDIFEAQKIEWHESSGEDLYFQSGTTMDDYKDDDDKGGSEVQKPLHEQLWYHGAIPRAEVAELLVHSGDFLVRESETVKGAYALSVLWDGLPRHFLIQSLDNLYRLEGEGFPSIPLLIDHLLSTQQPLTKKSGVVLHRAVPSR	42 nM	70 nM	–
Ptn6_C^G-αA2-R sFes (protein) MKIEEHHHHHHSSGKLGLNDIFEAQKIEWHESSGEDLYFQSGTTMDDYKDDDDKGSLNCSDPTSERWYHGHMSRGQAETLLQAKGEPWTFLVREGQSQPDFVLSVLSDQPKAGPGSPLRVTHIIVMCEGGRYTVGGLETFDSLTDLVEHFKKTGIEEASGAFVYLRQPYYATRVNAADSR	–	–	IC50 [7]: 900 nM
